Key:
[1] = substrate: O=[N+]([O-])c1ccc(O[C@H]2O[C@H](CO)[C@@H](O)[C@H](O)[C@H]2O)cc1; assay: purified protein
[2] = substrate: OC[C@H]1O[C@@](CO)(O[C@H]2O[C@H](CO)[C@@H](O)[C@H](O)[C@H]2O)[C@@H](O)[C@@H]1O; assay: glucose release, glucose oxidase assay; assay type: biochemical, Thermus thermophilus; conditions: 90 °C, citric acid-sodium phosphate buffer pH 5.0
[3] = substrate: OC[C@H]1O[C@H](O[C@H]2O[C@H](CO)[C@@H](O)[C@H](O)[C@H]2O)[C@H](O)[C@@H](O)[C@@H]1O; assay: glucose release, glucose oxidase assay; assay type: biochemical, Thermus thermophilus; conditions: 90 °C, citric acid-sodium phosphate buffer pH 5.0
[4] = optimal reaction conditions (90 °C, pH 5.0), substrate pNPG implied by context
[5] = 90 °C, citric acid-sodium phosphate buffer pH 5.0

Row | Protein | Km [1, 4] [mM] | kcat [1, 4] [s⁻¹] | Km [1, 5] [mM] | kcat [1, 5] [s⁻¹] | kcat/Km [1, 5] [M⁻¹ s⁻¹] | Km [2] [mM] | kcat [2] [s⁻¹] | kcat/Km [2] [M⁻¹ s⁻¹] | Km [3] [mM] | kcat [3] [s⁻¹] | kcat/Km [3] [M⁻¹ s⁻¹]
1 | TtAG (Thermus thermophilus; Q10Y) (protein) MWWKEAVIYYVYPRSFQDTNGDGVADVEGVRRRLPYLKSLGVDAIWLSPFYKSPMKDFGYDLADYCDVDPIFGTLQDFDRLLEEAHALGLRVLVDLVPNHTSSEHPWFLESRASRNSPKRDWYIWKDPAPDGGPPNNWQSFFGGPAWTLDEATGQYYLHQFLPEQPDLNWRNPEVREALYEVMRFWLRRGVDGFRVDVLWLLAEDLLFKDEPGNPDWRPGMWDRGRHLHIFTEDQPETYAYVREMRQVLDEFSEPGRERVMVGEIYLPYPQLLRYYQAGCHLPFNFHLIFRGLPDWRPENLARIVEEYESLLTRWDWPNWVLGNHDQPRLASRLGEAQARVGAMLLFTLRGTPTWYYGDEIGMKNGEIPPEKVQDPAALRQKDRLGEHQLPPGRDPERTPMQWDDTPFAGFSTVEPWLPVNPDYKTRNVAAQENDPRSMLHLVRRLIALRKDPDLLYGAYRTYRAREGVYAYLRGEGWLVAINLTEKEKALELPRGGRVVLTTHLDREERVGERLLLRPDEGVVVRLD | 0.46 | 356.57 | – | – | – | – | – | – | – | – | –
2 | TtAG (Thermus thermophilus) (protein, trimer by DLS (184 kDa)) MWWKEAVIYQVYPRSFQDTNGDGVADVEGVRRRLPYLKSLGVDAIWLSPFYKSPMKDFGYDLADYCDVDPIFGTLQDFDRLLEEAHALGLRVLVDLVPNHTSSEHPWFLESRASRNSPKRDWYIWKDPAPDGGPPNNWQSFFGGPAWTLDEATGQYYLHQFLPEQPDLNWRNPEVREALYEVMRFWLRRGVDGFRVDVLWLLAEDLLFKDEPGNPDWRPGMWDRGRHLHIFTEDQPETYAYVREMRQVLDEFSEPGRERVMVGEIYLPYPQLLRYYQAGCHLPFNFHLIFRGLPDWRPENLARIVEEYESLLTRWDWPNWVLGNHDQPRLASRLGEAQARVGAMLLFTLRGTPTWYYGDEIGMKNGEIPPEKVQDPAALRQKDRLGEHQLPPGRDPERTPMQWDDTPFAGFSTVEPWLPVNPDYKTRNVAAQENDPRSMLHLVRRLIALRKDPDLLYGAYRTYRAREGVYAYLRGEGWLVAINLTEKEKALELPRGGRVVLTTHLDREERVGERLLLRPDEGVVVRLD | – | – | 0.48 | 659 | 1.37e+06 | 30.53 | 74.6 | 2460 | 19.96 | 140 | 7020

From paper PMC4618444, “Evaluation and directed evolution for thermostability improvement of a GH 13 thermostable α-glucosidase from Thermus thermophilus TC11” (BMC Biotechnology, 2015)
